The source of these data is article PMC11389850.

This assay concerns the target BbmrR (Brevibacillus borstelensis). The assay can be described thus: SEC; analytical size-exclusion chromatography, Superdex 200 10/300, 50 mM phosphate buffer, 500 mM NaCl, pH 7.5, 100 uL sample injected; column calibrated with LMW/HMW gel-filtration kits. For orientation: In gel filtration, larger molecules generally elute earlier.

In general, stoichiometry N refers to a count of units in the complex or per binding partner. Take BbmrR (natural protein): the stoichiometry N came out at 2.
